pKi: −log10 of the molar value.

These results are taken from article PMC9104438, “Application of a Fluorescence Anisotropy-Based Assay to Quantify Transglutaminase 2 Activity in Cell Lysates” (International Journal of Molecular Sciences, 2022).

Common to all, as to experiment: FA-based assay, kinetic characterization of acyl donor DMC with R-I-Cad
What all share (type): biochemical

One data set addresses T1, hTGase 3 (Homo sapiens, UniProt Q08188).
T1 sequence (Q08188 2-467 limits assumed): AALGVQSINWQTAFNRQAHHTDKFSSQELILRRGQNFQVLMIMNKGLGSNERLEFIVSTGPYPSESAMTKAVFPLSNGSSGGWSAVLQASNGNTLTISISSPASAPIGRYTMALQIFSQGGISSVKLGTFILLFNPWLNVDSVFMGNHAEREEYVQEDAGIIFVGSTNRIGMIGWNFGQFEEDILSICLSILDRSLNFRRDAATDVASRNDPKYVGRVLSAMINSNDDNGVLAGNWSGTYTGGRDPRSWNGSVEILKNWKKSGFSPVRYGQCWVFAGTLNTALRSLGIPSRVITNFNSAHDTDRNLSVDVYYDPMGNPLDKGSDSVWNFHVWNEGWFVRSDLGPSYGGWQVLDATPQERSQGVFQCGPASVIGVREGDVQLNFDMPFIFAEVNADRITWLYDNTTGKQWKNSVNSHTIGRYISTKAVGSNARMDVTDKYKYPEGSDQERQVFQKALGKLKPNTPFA
T1 sequence (Q08188 468-693 partner limits assumed): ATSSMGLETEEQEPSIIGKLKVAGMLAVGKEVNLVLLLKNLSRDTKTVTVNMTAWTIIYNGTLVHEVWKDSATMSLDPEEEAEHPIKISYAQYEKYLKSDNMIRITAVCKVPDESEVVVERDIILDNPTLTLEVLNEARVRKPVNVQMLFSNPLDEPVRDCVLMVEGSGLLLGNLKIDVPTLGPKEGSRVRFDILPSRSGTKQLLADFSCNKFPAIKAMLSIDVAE
Also noted: purchased Zedira T013. As to conditions: hTGase 3 5 µg/mL, R-I-Cad 0.74 µM, mean (SEM). The procedure: (§1) For the kinetic characterization of DMC (Figure 1B) in the presence of a fixed concentration of R-I-Cad (0.74 µM), eight different concentrations of DMC (0.3–300 µM) were used (2–3 separate experiments, each performed in duplicate). The corresponding stock solutions of DMC and R-I-Cad were prepared in assay buffer A and DMSO, respectively. […] Values for Km, Ki and Vmax were calculated according to the equation of substrate inhibition (Equation (2)). (2) v=Vmax∗[S]/Km+[S]∗(1+[S]/Ki)

The target in another data set is T2, hTGase 6 (Homo sapiens, UniProt O95932).
T2 sequence (O95932 1-706): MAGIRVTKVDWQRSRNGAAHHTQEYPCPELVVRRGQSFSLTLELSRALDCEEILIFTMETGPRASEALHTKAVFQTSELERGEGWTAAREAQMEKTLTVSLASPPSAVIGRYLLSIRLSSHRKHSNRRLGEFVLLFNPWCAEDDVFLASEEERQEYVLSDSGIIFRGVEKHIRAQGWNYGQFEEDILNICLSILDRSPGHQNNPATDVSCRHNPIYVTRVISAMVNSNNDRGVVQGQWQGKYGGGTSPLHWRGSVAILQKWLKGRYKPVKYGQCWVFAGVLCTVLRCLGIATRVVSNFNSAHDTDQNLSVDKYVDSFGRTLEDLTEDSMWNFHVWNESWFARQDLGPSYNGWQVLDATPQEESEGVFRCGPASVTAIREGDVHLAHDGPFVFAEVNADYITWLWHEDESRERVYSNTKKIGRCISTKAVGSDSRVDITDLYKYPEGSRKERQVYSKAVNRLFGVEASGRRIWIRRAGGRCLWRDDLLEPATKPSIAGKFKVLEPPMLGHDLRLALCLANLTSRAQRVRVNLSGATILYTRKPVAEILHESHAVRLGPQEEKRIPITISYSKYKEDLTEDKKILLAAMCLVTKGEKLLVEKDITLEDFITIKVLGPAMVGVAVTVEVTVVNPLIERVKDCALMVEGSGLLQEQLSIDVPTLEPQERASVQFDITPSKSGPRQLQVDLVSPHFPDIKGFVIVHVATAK
More on the design: purchased Zedira T021. The settings on record: hTGase 6 5 µg/mL, R-I-Cad 0.74 µM, mean (SEM). The procedure: as §1

A further data set deals with T3, hFXIIIa (Homo sapiens, UniProt P00488).
T3 sequence (P00488 39-732 limits assumed): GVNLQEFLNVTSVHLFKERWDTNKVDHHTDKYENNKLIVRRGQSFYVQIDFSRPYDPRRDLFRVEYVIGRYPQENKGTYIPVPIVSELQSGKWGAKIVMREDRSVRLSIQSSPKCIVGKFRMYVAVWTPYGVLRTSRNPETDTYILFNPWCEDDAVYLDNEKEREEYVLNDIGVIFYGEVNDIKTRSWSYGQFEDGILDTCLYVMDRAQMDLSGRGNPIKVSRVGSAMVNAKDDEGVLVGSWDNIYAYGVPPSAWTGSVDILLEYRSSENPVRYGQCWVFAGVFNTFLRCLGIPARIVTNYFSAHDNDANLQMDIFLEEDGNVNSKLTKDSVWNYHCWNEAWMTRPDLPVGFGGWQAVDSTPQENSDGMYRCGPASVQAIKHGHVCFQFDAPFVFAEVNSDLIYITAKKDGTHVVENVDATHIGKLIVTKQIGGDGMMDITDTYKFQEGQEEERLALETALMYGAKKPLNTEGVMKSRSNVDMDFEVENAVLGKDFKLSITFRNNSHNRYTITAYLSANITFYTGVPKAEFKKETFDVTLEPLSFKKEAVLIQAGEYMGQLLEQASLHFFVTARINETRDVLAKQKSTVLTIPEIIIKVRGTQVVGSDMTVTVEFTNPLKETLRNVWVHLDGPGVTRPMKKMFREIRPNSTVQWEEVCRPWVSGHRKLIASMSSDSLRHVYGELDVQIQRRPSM
More on the design: purchased Zedira T070. The settings on record: hFXIIIa 5 µg/mL, R-I-Cad 0.74 µM, mean (SEM). The protocol: as §1

[1] abbreviates: read-out: Ki (substrate inhibition).

Broadly, the Km is the substrate concentration at which the rate is half of its maximum. As a reminder, the pKi is the Ki on a negative log10 scale, so that one unit is a factor of ten. For N,N-dimethylated casein [DMC], the Michaelis constant (Km) was found to be 6.29 µM with hTGase 3, 16.6 µM with hTGase 6 and 17.5 µM with hFXIIIa. The results for the pKi on hTGase 3 (setting [1]), on hTGase 6 (setting [1]) and on hFXIIIa (setting [1]) were 3.24, 3.72 and 3.87, respectively. Further, the Vmax in the data set with hTGase 3 (pH 8.0, 30 °C) is recorded as 5.80 (0.09) mA mL s^−1 mg^−1; in the data set with hTGase 6 (pH 8.0, 30 °C), 27.1 (4.1) mA mL s^−1 mg^−1; in the data set with hFXIIIa (pH 8.0, 30 °C), 16.0 (1.1) mA mL s^−1 mg^−1.
